Reference: patent publication US20100150950A1, “HUMAN ANTIBODIES THAT BIND CD70 AND USES THEREOF” (Medarex, Inc., priority 2006, published 2010)

Tests used:
[1] = system: 786-O human renal cancer cell line; experiment: Internalization by immunofluorescence staining; format: cell-based
Protocol: The 786-O human renal cancer cell line was used to test the internalization of HuMab anti-CD70 antibodies 69A7 and 2H5 upon binding to the cells using immuno-fluorescence staining. 786-O cells (1×10^4 cells per 100 μl per well in a 96-well plate) were harvested from a tissue culture flask by treatment with 0.25% Trypsin/EDTA, then incubated with each of the HuMab anti-CD70 antibodies at 5 μg/ml in FACS buffer (PBS+5% FBS, media) for 30 minutes on ice. A human IgG1 isotype control was used as a negative control. Following 2 washes with media, the cells were re-suspended in the media (100 μl per well) and then incubated with goat anti-human secondary antibody conjugated with PE (Jackson ImmunoResearch Lab) at 1:100 dilution on ice for 30 minutes. The cells were either immediately imaged for morphology and immunofluorescence intensity under a fluorescent microscope (Nikon) at 0 min or incubated at 37° C. for various times. […] Similar results were also obtained with FITC-direct conjugated HuMab anti-CD70 antibodies in the assays. […] At the 120 min timepoint, membrane fluorescence was not apparent, but instead appeared to be present in intracellular compartments.

[2] = target: T1, CD70+ renal carcinoma 786-O cells (Homo sapiens, UniProt P32970); experiment: Blocking of mouse anti-CD70 antibody BU-69 binding; conditions: BU-69 1 μg/ml; 69A7 1, 5 or 10 μg/ml
T1 construct: natively expressing CD70+ human cancer cell line 786-0 cells; endogenous in cells; host or cells: 786-O (ATCC CRL-1932), A-498 (HTB-44), ACHN (CRL-1611), Caki-1 (HTB-46), Caki-2 (HTB-47)
T1 sequence (P32970 1-193): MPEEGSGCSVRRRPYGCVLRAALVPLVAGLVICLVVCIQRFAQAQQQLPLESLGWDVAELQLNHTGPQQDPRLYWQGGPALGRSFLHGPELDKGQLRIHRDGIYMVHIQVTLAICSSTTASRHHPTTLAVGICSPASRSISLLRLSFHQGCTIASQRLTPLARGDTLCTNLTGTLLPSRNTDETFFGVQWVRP
Protocol: In this experiment, the HuMAb anti-CD70 antibody 69A7 was tested for its ability to block binding of a known mouse anti-CD70 antibody to CD70+renal carcinoma 786-O cells. 786-O cells were incubated with the mouse anti-CD70 antibody BU-69 (Ancell, Bayport, Minn.) at 1 μg/ml and the HuMAb 69A7 at 1, 5 or 10 μg/ml for 20 minutes on ice. IgG1 and IgG2 isotype control antibodies were used as negative controls. The cells were washed twice and binding was detected with a FITC-labeled anti-human IgG Ab. Flow cytometric analyses were performed using a FACSCalibur flow cytometry (Becton Dickinson, San Jose, Calif.).

[3] = target: T2, human CD70 expressed on the cell surface (human, UniProt P32970 1-193); experiment: flow cytometry on 786-O cells, MFI
T2 construct: also called full length CD70 on transfected CHO cells
T2 sequence: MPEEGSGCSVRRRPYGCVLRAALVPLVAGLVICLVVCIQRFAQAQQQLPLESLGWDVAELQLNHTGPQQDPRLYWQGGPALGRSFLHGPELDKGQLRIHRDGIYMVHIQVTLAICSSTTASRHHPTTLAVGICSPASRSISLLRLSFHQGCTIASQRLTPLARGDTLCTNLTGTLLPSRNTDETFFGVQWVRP
Protocol: Binding of the anti-CD70 human monoclonal antibodies was assessed by incubating 5×10⁵ cells with antibody at a starting concentration of 10 μg/ml and serially diluting the antibody at a 1:3 dilution. The cells were washed and binding was detected with a PE-labeled anti-human IgG Ab. Flow cytometric analyses were performed using a FACSCalibur flow cytometry (Becton Dickinson, San Jose, Calif.).

HuT 78 cells = experiment: ADCC fluorescence cytotoxicity assay, HuT 78; format: cell-based, human; conditions: target to effector ratio 1:50
Protocol: In this example, anti-CD70 monoclonal antibodies were tested for the ability to kill CD70+ cell lines in the presence of effector cells via antibody dependent cellular cytotoxicity (ADCC) in a fluorescence cytotoxicity assay.
Human effector cells were prepared from whole blood as follows. Human peripheral blood mononuclear cells were purified from heparinized whole blood by standard Ficoll-paque separation. The cells were resuspended in RPMI1640 media containing 10% FBS and 200 U/ml of human IL-2 and incubated overnight at 37° C. The following day, the cells were collected and washed four times in culture media and resuspended at 2×10^7 cells/ml. […]
The CD70+ cell lines ARH-77 (human B lymphoblast leukemia; ATCC Accession No. CRL-1621), HuT 78 (human cutaneous lymphocyte lymphoma; ATCC Accession No. TIB-161), Raji (human B lymphocyte Burkitt's lymphoma; ATCC Accession No. CCL-86) and a negative control cell line L540 (human Hodgkin's lymphoma; DSMZ Deposit No. ACC 72) were tested for antibody specific ADCC to the human anti-CD70 monoclonal antibodies using the Delfia fluorescence emission analysis as follows. […]
In this example, a defucosylated and non-defucosylated anti-CD70 monoclonal antibody was tested for the ability to kill CD70+cells in the presence of effector cells via antibody dependent cellular cytotoxicity (ADCC) in a fluorescence cytotoxicity assay […]

B1: anti-CD70 human monoclonal antibody 69A7 (antibody, V domains shown)
VH: QVQLQESGPGLVKPSETLSLTCTVSGGSVSSDYYYWSWIRQPPGKGLEWLGYIYYSGSTNYNPSLKSRVTISVDTSKNQFSLKLRSVTTADTAVYYCARGDGDYGGNCFDYWGQGTLVTVSS
VL: EIVLTQSPATLSLSPGERATLSCRASQSVSSYLAWYQQKPGQAPRLLIFDASNRATGIPARFSGSGSGTDFTLTISSLEPEDFAVYYCQQRSNWPLTFGGGTKVEIK
notes: Human IgG from hybridoma; also called HuMAb 69A7; FITC-conjugated 69A7
[1]; 30 min incubation at 37° C.
  membrane fluorescence intensity: significantly decreased
[1]; 120 min timepoint
  membrane fluorescence: not apparent
[1]; antibody 5 μg/ml, 37° C.
  internalization upon binding: specifically internalized
[2]
  blocking of mouse anti-CD70 antibody BU-69 binding: blocks binding
[3]
  EC50: 6.93 nM

B2: 2H5 NF: 2H5 HuMAb lacking fucosyl residues, expressed in CHO cell line Ms704-PF (antibody, V domains shown)
VH: QVQLVESGGGVVQPGRSLRLSCAASGFTFSSYIMHWVRQAPGKGLEWVAVISYDGRNKYYADSVKGRFTISRDNSKNTLYLQMNSLRAEDTAVYYCARDTDGYDFDYWGQGTLVTVSS
VL: EIVLTQSPATLSLSPGERATLSCRASQSVSSYLAWYQQKPGQAPRLLIYDASNRATGIPARFSGSGSGTDFTLTISSLEPEDFAVYYCQQRTNWPLTFGGGTKVEIK
HuT 78 cells
  ADCC, % lysis of HuT 78: increased percentage of specific lysis
